From article PMC6778125, “Cryo-EM structure of the bacterial Ton motor subcomplex ExbB–ExbD provides information on structure and stoichiometry” (Communications Biology, 2019)

Tests used:
ExbD = ExbD (UniProt P0ABV2); test: cryo-EM structure; single particle cryo-EM of the co-expressed, purified full-length ExbB-ExbD complex in lipid nanodiscs (MSP1E3D1, E. coli polar lipid extract); Tris 25 mM pH7.4 NaCl 200 mM; C1 symmetry, 3.3 Å
[1] = target: the molecule itself; test: as above

Row | stoichiometry N (ExbD) | Molecule | stoichiometry N [1]
1 | 2 | ExbD (from UniProt P0ABV2 1-141) (natural protein) | 
2 |  | ExbB (natural protein, UniProt P0ABU7 1-244, looked up, ExbB, inner membrane subunit of the Ton complex, 244 residues, three TM helices; native exbB, no tag; also called native ExbB; ExbB pentamer; source: reconstituted in lipid nanodiscs (MSP1E3D1, E. coli polar lipid extract)) MGNNLMQTDLSVWGMYQHADIVVKCVMIGLILASVVTWAIFFSKSVEFFNQKRRLKREQQLLAEARSLNQANDIAADFGSKSLSLHLLNEAQNELELSEGSDDNEGIKERTSFRLERRVAAVGRQMGRGNGYLATIGAISPFVGLFGTVWGIMNSFIGIAQTQTTNLAVVAPGIAEALLATAIGLVAAIPAVVIYNVFARQIGGFKAMLGDVAAQVLLLQSRDLDLEASAAAHPVRVAQKLRAG | 5
